In patent US20110091994A1, “Methods for Screening Compounds for Treating and/or Preventing an Hepatitis C Virus Infection” (priority 2008, published 2011):

B1: SLC31A2 (protein, UniProt O15432 1-143, looked up)
Protein SLC31A2: MAMHFIFSDTAVLLFDFWSVHSPAGMALSVLVLLLLAVLYEGIKVGKAKLLNQVLVNLPTSISQQTIAETDGDSAGSDSFPVGRTHHRWYLCHFGQSLIHVIQVVIGYFIMLAVMSYNTWIFLGVVLGSAVGYYLAYPLLSTA
B2: THAP1 (protein, UniProt Q9NVV9 1-213, looked up)
THAP domain-containing …: MVQSCSAYGCKNRYDKDKPVSFHKFPLTRPSLCKEWEAAVRRKNFKPTKYSSICSEHFTPDCFKRECNNKLLKENAVPTIFLCTEPHDKKEDLLEPQEQLPPPPLPPPVSQVDAAIGLLMPPLQTPVNLSVFCDHNYTVEDTMHQRKRIHQLEQQVEKLRKKLKTAQQRCRRQERQLEKLKEVVHFQKEKDDVSERGYVILPNDYFEIVEVPA
B3: XAB2 (protein, UniProt Q9HCS7 1-855, looked up)
Pre-mRNA-splicing factor SYF1: MVVMARLSRPERPDLVFEEEDLPYEEEIMRNQFSVKCWLRYIEFKQGAPKPRLNQLYERALKLLPCSYKLWYRYLKARRAQVKHRCVTDPAYEDVNNCHERAFVFMHKMPRLWLDYCQFLMDQGRVTHTRRTFDRALRALPITQHSRIWPLYLRFLRSHPLPETAVRGYRRFLKLSPESAEEYIEYLKSSDRLDEAAQRLATVVNDERFVSKAGKSNYQLWHELCDLISQNPDKVQSLNVDAIIRGGLTRFTDQLGKLWCSLADYYIRSGHFEKARDVYEEAIRTVMTVRDFTQVFDSYAQFEESMIAAKMETASELGREEEDDVDLELRLARFEQLISRRPLLLNSVLLRQNPHHVHEWHKRVALHQGRPREIINTYTEAVQTVDPFKATGKPHTLWVAFAKFYEDNGQLDDARVILEKATKVNFKQVDDLASVWCQCGELELRHENYDEALRLLRKATALPARRAEYFDGSEPVQNRVYKSLKVWSMLADLEESLGTFQSTKAVYDRILDLRIATPQIVINYAMFLEEHKYFEESFKAYERGISLFKWPNVSDIWSTYLTKFIARYGGRKLERARDLFEQALDGCPPKYAKTLYLLYAQLEEEWGLARHAMAVYERATRAVEPAQQYDMFNIYIKRAAEIYGVTHTRGIYQKAIEVLSDEHAREMCLRFADMECKLGEIDRARAIYSFCSQICDPRTTGAFWQTWKDFEVRHGNEDTIKEMLRIRRSVQATYNTQVNFMASQMLKVSGSATGTVSDLAPGQSGMDDMKLLEQRAEQLAAEAERDQPLRAQSKILFVRSDASREELAELAQQVNPEEIQLGEDEDEDEMDLEPNEVRLEQQSVPAAVFGSLKED
B4: USHBP1 (protein, UniProt Q8N6Y0 1-703, looked up)
Harmonin-binding protein …: MSARATRPRSRRGRHAPPGELDPVAESSEEVEAASGSSKPSFAPPPVSSGLEQLGPMEEVSGQGLGSRTDKKMDGGSGRELASAPEVPHKPAVEAHQAPEAALQYKETVPPGNGAPDVFQTLQHTLSSLEAAAAAWRHQPPSHSGPMEFEGTSEGGAGSLGKQEGAGSCQREAARLAERNAWLRLALSSREDELVRTQASLEAIRAEKETLQKEVQELQDSLLRLEPCPHLSHNQAGGSGSGSSSSEADREPWETQDSFSLAHPLLRRLRSHSSTQILGSLPNQPLSPEMHIMEAQMEQLRGSIEKLKCFNRLLSAVLQGYKGRCEGLSMQLGQREAEATALHLALQYSEHCEEAYRVLLALREADSGAGDEAPMSDLQAAEKEAWRLLAQEEAAMDAGAQQNPQPSPEGSSVDKPTPQEVAFQLRSYVQRLQERRSLMKILSEPGPTLAPMPTVPRAEAMVQAILGTQAGPALPRLEKTQIQQDLVAAREALADLMLRLQLVRREKRGLELREAALRALGPAHVLLLEQLRWERAELQAGGANSSGGHSSGGGSSGDEEEWYQGLPAVPGGTSGIDGGQVGRAWDPEKLAQELAASLTRTLDLQEQLQSLRRELEQVAQKGRARRSQSAELNRDLCKAHSALVLAFRGAHRKQEEQRRKLEQQMALMEAQQAEEVAVLEATARALGKPRPPLPPPQLGDTFL
B5: TRIM23 (protein, UniProt P36406 1-574, looked up)
E3 ubiquitin-protein ligase …: MATLVVNKLGAGVDSGRQGSRGTAVVKVLECGVCEDVFSLQGDKVPRLLLCGHTVCHDCLTRLPLHGRAIRCPFDRQVTDLGDSGVWGLKKNFALLELLERLQNGPIGQYGAAEESIGISGESIIRCDEDEAHLASVYCTVCATHLCSECSQVTHSTKTLAKHRRVPLADKPHEKTMCSQHQVHAIEFVCLEEGCQTSPLMCCVCKEYGKHQGHKHSVLEPEANQIRASILDMAHCIRTFTEEISDYSRKLVGIVQHIEGGEQIVEDGIGMAHTEHVPGTAENARSCIRAYFYDLHETLCRQEEMALSVVDAHVREKLIWLRQQQEDMTILLSEVSAACLHCEKTLQQDDCRVVLAKQEITRLLETLQKQQQQFTEVADHIQLDASIPVTFTKDNRVHIGPKMEIRVVTLGLDGAGKTTILFKLKQDEFMQPIPTIGFNVETVEYKNLKFTIWDVGGKHKLRPLWKHYYLNTQAVVFVVDSSHRDRISEAHSELAKLLTEKELRDALLLIFANKQDVAGALSVEEITELLSLHKLCCGRSWYIQGCDARSGMGLYEGLDWLSRQLVAAGVLDVA
B6: ZBTB1 (protein, UniProt Q9Y2K1 1-713, looked up)
Zinc finger and BTB …: MAKPSHSSYVLQQLNNQREWGFLCDCCIAIDDIYFQAHKAVLAACSSYFRMFFMNHQHSTAQLNLSNMKISAECFDLILQFMYLGKIMTAPSSFEQFKVAMNYLQLYNVPDCLEDIQDADCSSSKCSSSASSKQNSKMIFGVRMYEDTVARNGNEANRWCAEPSSTVNTPHNREADEESLQLGNFPEPLFDVCKKSSVSKLSTPKERVSRRFGRSFTCDSCGFGFSCEKLLDEHVLTCTNRHLYQNTRSYHRIVDIRDGKDSNIKAEFGEKDSSKTFSAQTDKYRGDTSQAADDSASTTGSRKSSTVESEIASEEKSRAAERKRIIIKMEPEDIPTDELKDFNIIKVTDKDCNESTDNDELEDEPEEPFYRYYVEEDVSIKKSGRKTLKPRMSVSADERGGLENMRPPNNSSPVQEDAENASCELCGLTITEEDLSSHYLAKHIENICACGKCGQILVKGRQLQEHAQRCGEPQDLTMNGLGNTEEKMDLEENPDEQSEIRDMFVEMLDDFRDNHYQINSIQKKQLFKHSACPFRCPNCGQRFETENLVVEHMSSCLDQDMFKSAIMEENERDHRRKHFCNLCGKGFYQRCHLREHYTVHTKEKQFVCQTCGKQFLRERQLRLHNDMHKGMARYVCSICDQGNFRKHDHVRHMISHLSAGETICQVCFQIFPNNEQLEQHMDVHLYTCGICGAKFNLRKDMRSHYNAKHLKRT
B7: XRN2 (protein, UniProt Q9H0D6 1-950, looked up)
5'-3' exoribonuclease 2: MGVPAFFRWLSRKYPSIIVNCVEEKPKECNGVKIPVDASKPNPNDVEFDNLYLDMNGIIHPCTHPEDKPAPKNEDEMMVAIFEYIDRLFSIVRPRRLLYMAIDGVAPRAKMNQQRSRRFRASKEGMEAAVEKQRVREEILAKGGFLPPEEIKERFDSNCITPGTEFMDNLAKCLRYYIADRLNNDPGWKNLTVILSDASAPGEGEHKIMDYIRRQRAQPNHDPNTHHCLCGADADLIMLGLATHEPNFTIIREEFKPNKPKPCGLCNQFGHEVKDCEGLPREKKGKHDELADSLPCAEGEFIFLRLNVLREYLERELTMASLPFTFDVERSIDDWVFMCFFVGNDFLPHLPSLEIRENAIDRLVNIYKNVVHKTGGYLTESGYVNLQRVQMIMLAVGEVEDSIFKKRKDDEDSFRRRQKEKRKRMKRDQPAFTPSGILTPHALGSRNSPGSQVASNPRQAAYEMRMQNNSSPSISPNTSFTSDGSPSPLGGIKRKAEDSDSEPEPEDNVRLWEAGWKQRYYKNKFDVDAADEKFRRKVVQSYVEGLCWVLRYYYQGCASWKWYYPFHYAPFASDFEGIADMPSDFEKGTKPFKPLEQLMGVFPAASGNFLPPSWRKLMSDPDSSIIDFYPEDFAIDLNGKKYAWQGVALLPFVDERRLRAALEEVYPDLTPEETRRNSLGGDVLFVGKHHPLHDFILELYQTGSTEPVEVPPELCHGIQGKFSLDEEAILPDQIVCSPVPMLRDLTQNTVVSINFKDPQFAEDYIFKAVMLPGARKPAAVLKPSDWEKSSNGRQWKPQLGFNRDRRPVHLDQAAFRTLGHVMPRGSGTGIYSNAAPPPVTYQGNLYRPLLRGQAQIPKLMSNMRPQDSWRGPPPLFQQQRFDRGVGAEPLLPWNRMLQTQNAAFQPNQYQMLAGPGGYPPRRDDRGGRQGYPREGRKYPLPPPSGRYNWN
B8: TBC1D2B (protein, UniProt Q9UPU7 1-963, looked up)
TBC1 domain family member 2B: MPGAGARAEEGGGGGEGAAQGAAAEPGAGPAREPARLCGYLQKLSGKGPLRGYRSRWFVFDARRCYLYYFKSPQDALPLGHLDIADACFSYQGPDEAAEPGTEPPAHFQVHSAGAVTVLKAPNRQLMTYWLQELQQKRWEYCNSLDMVKWDSRTSPTPGDFPKGLVARDNTDLIYPHPNASAEKARNVLAVETVPGELVGEQAANQPAPGHPNSINFYSLKQWGNELKNSMSSFRPGRGHNDSRRTVFYTNEEWELLDPTPKDLEESIVQEEKKKLTPEGNKGVTGSGFPFDFGRNPYKGKRPLKDIIGSYKNRHSSGDPSSEGTSGSGSVSIRKPASEMQLQVQSQQEELEQLKKDLSSQKELVRLLQQTVRSSQYDKYFTSSRLCEGVPKDTLELLHQKDDQILGLTSQLERFSLEKESLQQEVRTLKSKVGELNEQLGMLMETIQAKDEVIIKLSEGEGNGPPPTVAPSSPSVVPVARDQLELDRLKDNLQGYKTQNKFLNKEILELSALRRNAERRERDLMAKYSSLEAKLCQIESKYLILLQEMKTPVCSEDQGPTREVIAQLLEDALQVESQEQPEQAFVKPHLVSEYDIYGFRTVPEDDEEEKLVAKVRALDLKTLYLTENQEVSTGVKWENYFASTVNREMMCSPELKNLIRAGIPHEHRSKVWKWCVDRHTRKFKDNTEPGHFQTLLQKALEKQNPASKQIELDLLRTLPNNKHYSCPTSEGIQKLRNVLLAFSWRNPDIGYCQGLNRLVAVALLYLEQEDAFWCLVTIVEVFMPRDYYTKTLLGSQVDQRVFRDLMSEKLPRLHGHFEQYKVDYTLITFNWFLVVFVDSVVSDILFKIWDSFLYEGPKVIFRFALALFKYKEEEILKLQDSMSIFKYLRYFTRTILDARKLISISFGDLNPFPLRQIRNRRAYHLEKVRLELTELEAIREDFLRERDTSPDKGELVSDEEEDT

Target: T1, HCV ORFs (Gal4-DB fusions) (Hepatitis C virus genotype 1b, UniProt Q9WMX2)
T1 construct: expressed in transfected cells; host or cells: Saccharomyces cerevisiae MAV203 (IMAP1) / AH109 (IMAP2)
Assay: not given
Assay type: binding, HCV genotype 1b, isolate con1
Details: HCV protein CORE as bait; human protein as prey
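Wherever IMAP Y2H IMAP1 (number of IST) is given: yeast two-hybrid screens using HCV genotype 1b proteins fused to Gal4-DB as baits against prey cDNA libraries from human spleen and foetal brain, IMAP1 via transformation and IMAP2 via mating.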
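Wherever Interaction with viral protein is given: yeast two-hybrid screens using HCV genotype 1b proteins fused to Gal4-DB as baits against prey cDNA libraries from human spleen and foetal brain, IMAP1 via transformation and IMAP2 via mating.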

Row | Molecule | IMAP Y2H IMAP1 (number of IST)
1 | B1 | 1

Same assay, conditions: HCV protein NS3 as bait; human protein as prey

Row | Molecule | IMAP Y2H IMAP1 (number of IST)
2 | B2 | 1
3 | B3 | 2
4 | B4 | 1
5 | B5 | 5
6 | B6 | 1
7 | B7 | 1
8 | B8 | 1

Tested on: HCV ORFs (Gal4-DB fusions)
Assay: not given
Assay type: binding, HCV genotype 1b, isolate con1
Details: human protein listed by gene symbol; the value names the HCV protein it interacts with

Row | Molecule | Interaction with viral protein
9 | B2 | NS3
10 | B1 | CORE
11 | B3 | NS3
12 | B4 | NS3
13 | B5 | NS3
14 | B6 | NS3
15 | B7 | NS3
16 | B8 | NS3

Target: T2, HCV proteins (Hepatitis C virus genotype 1b, UniProt Q9WMX2)
T2 construct: expressed in transfected cells
Assay: Validation by Y2H pairwise matrices;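 further: yeast two-hybrid pairwise tests of interactions first found in Y2H screens of HCV bait proteins against human cDNA libraries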
Assay type: binding
Details: validation of interaction with HCV protein CORE

Row | Molecule | Y2H matrices
17 | B1 | +

Same assay, conditions: validation of interaction with HCV protein NS3

Row | Molecule | Y2H matrices
18 | B2 | +
19 | B3 | +
20 | B4 | +
21 | B5 | +
22 | B6 | +
23 | B7 | +
24 | B8 | +
